T1: FcγRIIa R (human, UniProt P12318 34-217)
T1 construct: extracellular domain; also called FcgRIIa R type; 2aR
T1 sequence (looked up): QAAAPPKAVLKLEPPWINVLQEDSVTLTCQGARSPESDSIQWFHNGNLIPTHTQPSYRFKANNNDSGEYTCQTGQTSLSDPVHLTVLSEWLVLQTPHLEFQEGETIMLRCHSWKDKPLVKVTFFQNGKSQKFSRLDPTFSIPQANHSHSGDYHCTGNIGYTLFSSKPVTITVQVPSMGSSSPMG

T2: FcγRIIb (human, UniProt P31994 43-217)
T2 construct: extracellular domain; also called 2b; FcgRIIb
T2 sequence (looked up): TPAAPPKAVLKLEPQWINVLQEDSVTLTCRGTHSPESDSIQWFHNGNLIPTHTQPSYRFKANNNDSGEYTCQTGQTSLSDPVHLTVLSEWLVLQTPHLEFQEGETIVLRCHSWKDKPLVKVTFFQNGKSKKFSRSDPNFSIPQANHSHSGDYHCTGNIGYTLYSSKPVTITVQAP


target: T1, FcγRIIa R; experiment: SPR Biacore; vs GpH7-B3/GpL16-k0 =100
Description: (§1) Analysis of interaction between objective antibody and the FcγR was carried out using Biacore T100 (GE Healthcare). HBS-EP+ (GE Healthcare) was used as the running buffer, and the measurement temperature was set to 25° C. Chips produced by immobilizing the antigen peptide by the amine coupling method to a Series S Sencor Chip CM5 (GE Healthcare), or alternatively, chips produced by allowing preliminarily biotinylated antigen peptides to interact with and immobilize onto a Series S Sensor Chip SA (certified) (GE Healthcare) were used. Antibodies of interest were captured onto an antigen peptide-immobilized chip, and allowed to interact to each FcγR diluted with running buffer. To regenerate and repeatedly use the chip, the antibodies captured on the chip were washed off by reacting 10 mM glycine-HCl, pH 1.5.
(§2) The FcγR-binding activity of each antibody was assessed primarily using as an indicator the FcγR-binding activity and dissociation constant for FcγR.

Ho/Con_2aR	Binder
105 % of control	GpH7-B3 variant P331_15Y/GpL16-k0 (antibody, human IgG1, kappa, also called Ho Ab P331_15Y) heavy: not shown light: DIVMTQSPLSLPVTPGEPASISCQASESLVHSNRNTYLHWYLQKPGQSPQLLIYKVSNRFSGVPDRFSGSGSGTDFTLKISRVEAEDVGVYYCSQNTHVPPTFGQGTKVEIERTVAAPSVFIFPPSDEQLKSGTASVVCLLNNFYPREAKVQWKVDNALQSGNSQESVTEQDSKDSTYSLSSTLTLSKADYEKHKVYACEVTHQGLSSPVTKSFNRGEC
106 % of control	GpH7-B3 variant S239_08L/GpL16-k0 (antibody, human IgG1, kappa, also called Ho Ab S239_08L) heavy: not shown light: DIVMTQSPLSLPVTPGEPASISCQASESLVHSNRNTYLHWYLQKPGQSPQLLIYKVSNRFSGVPDRFSGSGSGTDFTLKISRVEAEDVGVYYCSQNTHVPPTFGQGTKVEIERTVAAPSVFIFPPSDEQLKSGTASVVCLLNNFYPREAKVQWKVDNALQSGNSQESVTEQDSKDSTYSLSSTLTLSKADYEKHKVYACEVTHQGLSSPVTKSFNRGEC
13 % of control	GpH7-B3 variant P238_09D/GpL16-k0 (antibody, human IgG1, kappa, also called Ho Ab P238_09D) heavy: not shown light: DIVMTQSPLSLPVTPGEPASISCQASESLVHSNRNTYLHWYLQKPGQSPQLLIYKVSNRFSGVPDRFSGSGSGTDFTLKISRVEAEDVGVYYCSQNTHVPPTFGQGTKVEIERTVAAPSVFIFPPSDEQLKSGTASVVCLLNNFYPREAKVQWKVDNALQSGNSQESVTEQDSKDSTYSLSSTLTLSKADYEKHKVYACEVTHQGLSSPVTKSFNRGEC
88.9 % of control	GpH7-B3 variant P238_06M/GpL16-k0 (antibody, human IgG1, kappa, also called Ho Ab P238_06M) heavy: not shown light: DIVMTQSPLSLPVTPGEPASISCQASESLVHSNRNTYLHWYLQKPGQSPQLLIYKVSNRFSGVPDRFSGSGSGTDFTLKISRVEAEDVGVYYCSQNTHVPPTFGQGTKVEIERTVAAPSVFIFPPSDEQLKSGTASVVCLLNNFYPREAKVQWKVDNALQSGNSQESVTEQDSKDSTYSLSSTLTLSKADYEKHKVYACEVTHQGLSSPVTKSFNRGEC
115 % of control	GpH7-B3 variant S267_03V/GpL16-k0 (antibody, human IgG1, kappa, also called Ho Ab S267_03V) heavy: not shown light: DIVMTQSPLSLPVTPGEPASISCQASESLVHSNRNTYLHWYLQKPGQSPQLLIYKVSNRFSGVPDRFSGSGSGTDFTLKISRVEAEDVGVYYCSQNTHVPPTFGQGTKVEIERTVAAPSVFIFPPSDEQLKSGTASVVCLLNNFYPREAKVQWKVDNALQSGNSQESVTEQDSKDSTYSLSSTLTLSKADYEKHKVYACEVTHQGLSSPVTKSFNRGEC
100 % of control	GpH7-B3 variant P331_16H/GpL16-k0 (antibody, human IgG1, kappa, also called Ho Ab P331_16H) heavy: not shown light: DIVMTQSPLSLPVTPGEPASISCQASESLVHSNRNTYLHWYLQKPGQSPQLLIYKVSNRFSGVPDRFSGSGSGTDFTLKISRVEAEDVGVYYCSQNTHVPPTFGQGTKVEIERTVAAPSVFIFPPSDEQLKSGTASVVCLLNNFYPREAKVQWKVDNALQSGNSQESVTEQDSKDSTYSLSSTLTLSKADYEKHKVYACEVTHQGLSSPVTKSFNRGEC
103 % of control	GpH7-B3 variant S239_18N/GpL16-k0 (antibody, human IgG1, kappa, also called Ho Ab S239_18N) heavy: not shown light: DIVMTQSPLSLPVTPGEPASISCQASESLVHSNRNTYLHWYLQKPGQSPQLLIYKVSNRFSGVPDRFSGSGSGTDFTLKISRVEAEDVGVYYCSQNTHVPPTFGQGTKVEIERTVAAPSVFIFPPSDEQLKSGTASVVCLLNNFYPREAKVQWKVDNALQSGNSQESVTEQDSKDSTYSLSSTLTLSKADYEKHKVYACEVTHQGLSSPVTKSFNRGEC
102 % of control	GpH7-B3 variant P331_20W/GpL16-k0 (antibody, human IgG1, kappa, also called Ho Ab P331_20W) heavy: not shown light: DIVMTQSPLSLPVTPGEPASISCQASESLVHSNRNTYLHWYLQKPGQSPQLLIYKVSNRFSGVPDRFSGSGSGTDFTLKISRVEAEDVGVYYCSQNTHVPPTFGQGTKVEIERTVAAPSVFIFPPSDEQLKSGTASVVCLLNNFYPREAKVQWKVDNALQSGNSQESVTEQDSKDSTYSLSSTLTLSKADYEKHKVYACEVTHQGLSSPVTKSFNRGEC
102 % of control	GpH7-B3 variant P331_02A/GpL16-k0 (antibody, human IgG1, kappa, also called Ho Ab P331_02A) heavy: not shown light: DIVMTQSPLSLPVTPGEPASISCQASESLVHSNRNTYLHWYLQKPGQSPQLLIYKVSNRFSGVPDRFSGSGSGTDFTLKISRVEAEDVGVYYCSQNTHVPPTFGQGTKVEIERTVAAPSVFIFPPSDEQLKSGTASVVCLLNNFYPREAKVQWKVDNALQSGNSQESVTEQDSKDSTYSLSSTLTLSKADYEKHKVYACEVTHQGLSSPVTKSFNRGEC
106 % of control	GpH7-B3 variant P331_04F/GpL16-k0 (antibody, human IgG1, kappa, also called Ho Ab P331_04F) heavy: not shown light: DIVMTQSPLSLPVTPGEPASISCQASESLVHSNRNTYLHWYLQKPGQSPQLLIYKVSNRFSGVPDRFSGSGSGTDFTLKISRVEAEDVGVYYCSQNTHVPPTFGQGTKVEIERTVAAPSVFIFPPSDEQLKSGTASVVCLLNNFYPREAKVQWKVDNALQSGNSQESVTEQDSKDSTYSLSSTLTLSKADYEKHKVYACEVTHQGLSSPVTKSFNRGEC
122 % of control	GpH7-B3 variant S239_10E/GpL16-k0 (antibody, human IgG1, kappa, also called Ho Ab S239_10E) heavy: not shown light: DIVMTQSPLSLPVTPGEPASISCQASESLVHSNRNTYLHWYLQKPGQSPQLLIYKVSNRFSGVPDRFSGSGSGTDFTLKISRVEAEDVGVYYCSQNTHVPPTFGQGTKVEIERTVAAPSVFIFPPSDEQLKSGTASVVCLLNNFYPREAKVQWKVDNALQSGNSQESVTEQDSKDSTYSLSSTLTLSKADYEKHKVYACEVTHQGLSSPVTKSFNRGEC
102 % of control	GpH7-B3 variant P271_08L/GpL16-k0 (antibody, human IgG1, kappa, also called Ho Ab P271_08L) heavy: not shown light: DIVMTQSPLSLPVTPGEPASISCQASESLVHSNRNTYLHWYLQKPGQSPQLLIYKVSNRFSGVPDRFSGSGSGTDFTLKISRVEAEDVGVYYCSQNTHVPPTFGQGTKVEIERTVAAPSVFIFPPSDEQLKSGTASVVCLLNNFYPREAKVQWKVDNALQSGNSQESVTEQDSKDSTYSLSSTLTLSKADYEKHKVYACEVTHQGLSSPVTKSFNRGEC

target: T2, FcγRIIb; experiment: SPR (Biacore), binding relative to GpH7-B3/GpL16-k0 = 100
Description: as §1, §2

Ho/Con_2b	Binder
47.8 % of control	GpH7-B3 variant G237_02A/GpL16-k0 (antibody, human IgG1, kappa, also called Ho Ab G237_02A) heavy: not shown light: DIVMTQSPLSLPVTPGEPASISCQASESLVHSNRNTYLHWYLQKPGQSPQLLIYKVSNRFSGVPDRFSGSGSGTDFTLKISRVEAEDVGVYYCSQNTHVPPTFGQGTKVEIERTVAAPSVFIFPPSDEQLKSGTASVVCLLNNFYPREAKVQWKVDNALQSGNSQESVTEQDSKDSTYSLSSTLTLSKADYEKHKVYACEVTHQGLSSPVTKSFNRGEC
140 % of control	GpH7-B3 variant G237_04F/GpL16-k0 (antibody, human IgG1, kappa, also called Ho Ab G237_04F) heavy: not shown light: DIVMTQSPLSLPVTPGEPASISCQASESLVHSNRNTYLHWYLQKPGQSPQLLIYKVSNRFSGVPDRFSGSGSGTDFTLKISRVEAEDVGVYYCSQNTHVPPTFGQGTKVEIERTVAAPSVFIFPPSDEQLKSGTASVVCLLNNFYPREAKVQWKVDNALQSGNSQESVTEQDSKDSTYSLSSTLTLSKADYEKHKVYACEVTHQGLSSPVTKSFNRGEC
37.6 % of control	GpH7-B3 variant A327_07I/GpL16-k0 (antibody, human IgG1, kappa, also called Ho Ab A327_07I) heavy: not shown light: DIVMTQSPLSLPVTPGEPASISCQASESLVHSNRNTYLHWYLQKPGQSPQLLIYKVSNRFSGVPDRFSGSGSGTDFTLKISRVEAEDVGVYYCSQNTHVPPTFGQGTKVEIERTVAAPSVFIFPPSDEQLKSGTASVVCLLNNFYPREAKVQWKVDNALQSGNSQESVTEQDSKDSTYSLSSTLTLSKADYEKHKVYACEVTHQGLSSPVTKSFNRGEC
49.4 % of control	GpH7-B3 variant G237_08L/GpL16-k0 (antibody, human IgG1, kappa, also called Ho Ab G237_08L) heavy: not shown light: DIVMTQSPLSLPVTPGEPASISCQASESLVHSNRNTYLHWYLQKPGQSPQLLIYKVSNRFSGVPDRFSGSGSGTDFTLKISRVEAEDVGVYYCSQNTHVPPTFGQGTKVEIERTVAAPSVFIFPPSDEQLKSGTASVVCLLNNFYPREAKVQWKVDNALQSGNSQESVTEQDSKDSTYSLSSTLTLSKADYEKHKVYACEVTHQGLSSPVTKSFNRGEC
35.3 % of control	GpH7-B3 variant G237_06M/GpL16-k0 (antibody, human IgG1, kappa, also called Ho Ab G237_06M) heavy: not shown light: DIVMTQSPLSLPVTPGEPASISCQASESLVHSNRNTYLHWYLQKPGQSPQLLIYKVSNRFSGVPDRFSGSGSGTDFTLKISRVEAEDVGVYYCSQNTHVPPTFGQGTKVEIERTVAAPSVFIFPPSDEQLKSGTASVVCLLNNFYPREAKVQWKVDNALQSGNSQESVTEQDSKDSTYSLSSTLTLSKADYEKHKVYACEVTHQGLSSPVTKSFNRGEC
101 % of control	GpH7-B3 variant A327_18N/GpL16-k0 (antibody, human IgG1, kappa, also called Ho Ab A327_18N) heavy: not shown light: DIVMTQSPLSLPVTPGEPASISCQASESLVHSNRNTYLHWYLQKPGQSPQLLIYKVSNRFSGVPDRFSGSGSGTDFTLKISRVEAEDVGVYYCSQNTHVPPTFGQGTKVEIERTVAAPSVFIFPPSDEQLKSGTASVVCLLNNFYPREAKVQWKVDNALQSGNSQESVTEQDSKDSTYSLSSTLTLSKADYEKHKVYACEVTHQGLSSPVTKSFNRGEC
102 % of control	GpH7-B3 variant A330_01G/GpL16-k0 (antibody, human IgG1, kappa, also called Ho Ab A330_01G) heavy: not shown light: DIVMTQSPLSLPVTPGEPASISCQASESLVHSNRNTYLHWYLQKPGQSPQLLIYKVSNRFSGVPDRFSGSGSGTDFTLKISRVEAEDVGVYYCSQNTHVPPTFGQGTKVEIERTVAAPSVFIFPPSDEQLKSGTASVVCLLNNFYPREAKVQWKVDNALQSGNSQESVTEQDSKDSTYSLSSTLTLSKADYEKHKVYACEVTHQGLSSPVTKSFNRGEC
35.3 % of control	GpH7-B3 variant A330_05P/GpL16-k0 (antibody, human IgG1, kappa, also called Ho Ab A330_05P) heavy: not shown light: DIVMTQSPLSLPVTPGEPASISCQASESLVHSNRNTYLHWYLQKPGQSPQLLIYKVSNRFSGVPDRFSGSGSGTDFTLKISRVEAEDVGVYYCSQNTHVPPTFGQGTKVEIERTVAAPSVFIFPPSDEQLKSGTASVVCLLNNFYPREAKVQWKVDNALQSGNSQESVTEQDSKDSTYSLSSTLTLSKADYEKHKVYACEVTHQGLSSPVTKSFNRGEC
